According to patent publication US20240018263A1:

Tests used:
[1] = biological target: VH-9.7 antigen on human patient-derived glioblastoma stem-like cells (GSC lines 12.1, 22, 33, 44, 99); assay: flow cytometry titration of monomeric VH-9.7 on live 33 GSC, one-site equilibrium fit, four independent titrations
[2] = biological target: VH-9.7 antigen on human patient-derived glioblastoma stem-like cells (GSC lines 12.1, 22, 33, 44, 99); assay: flow cytometry on cells dissociated from 44 GSC orthotopic xenografts, 125 nM predimerized VH-9.7

B1: VH-9.7-CMYC-HIS6 (soluble, purified single domain antibody VH-9.7) (antibody, V domains shown)
VH: QVQLVESEAEVKKPGASVKVSCKASGYSFTNYYMHWVRQAPGQGLEWMGLIDPSGTSTTYAQKFQGRVTMTRDTSASTVYMELTSLRSEDTAMYYCVGEESGSGSFSDWGQGTLVTVSS
- Kd [1]: 74.3 nM
- percent of cells labelled [2]: 17.9%
